In the supplement of paper PMC5998384:

Legend:
[1] = test system: HeLa Kyoto; assay: solubility in G1/S (NP-40 vs SDS abundance) (log2 ratio); higher = more soluble; details: cell cycle stage: G1/S
[2] = test system: HeLa Kyoto; assay: solubility change mitosis vs G1/S (difference of NP-40 vs SDS log2 ratios) (log2 ratio difference); higher = more soluble in mitosis
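Throughout, for solubility change mitosis vs G1/S (difference of NP-40 vs SDS log2 ratios): synchronized HeLa Kyoto cells (double thymidine block for G1/S, nocodazole release for mitosis), protein amounts in NP-40 versus SDS lysates quantified by mass spectrometry, three biological replicates.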
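Throughout, for solubility in G1/S (NP-40 vs SDS abundance): HeLa Kyoto cells arrested at G1/S by double thymidine block, proteins quantified by TMT10plex mass spectrometry in mild NP-40 versus SDS extracts, three biological replicates.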

Row | Sequence | solubility in G1/S (log2) [1] | solubility change mitosis (log2) [2]
1 | MQAEGRGTGGSTGDADGPGGPGIPDGPGGNAGGPGEAGATGGRGPRGAGAARASGPRGGAPRGPHGGAASAQDGRCPCGARRPDSRLLELHITMPFSSPMEAELVRRILSRDAAPLPRPGAVLKDFTVSGNLLFMSVRDQDREGAGRMRVVGWGLGSASPEGQKARDLRTPKHKVSEQRPGTPGPPPPEGAQGDGCRGVAFNVMFSAPHI [CTAG2] | 1 | -0.32
2 | MQARYSVSSPNSLGVVPYLGGEQSYYRAAAAAAGGGYTAMPAPMSVYSHPAHAEQYPGGMARAYGPYTPQPQPKDMVKPPYSYIALITMAIQNAPDKKITLNGIYQFIMDRFPFYRDNKQGWQNSIRHNLSLNECFVKVPRDDKKPGKGSYWTLDPDSYNMFENGSFLRRRRRFKKKDAVKDKEEKDRLHLKEPPPPGRQPPPAPPEQADGNAPGPQPPPVRIQDIKTENGTCPSPPQPLSPAAALGSGSAAAVPKIESPDSSSSSLSSGSSPPGSLPSARPLSLDGADSAPPPPAPSAPPPHHSQGFSVDNIMTSLRGSPQSAAAELSSGLLASAAASSRAGIAPPLALGAYSPGQSSLYSSPCSQTSSAGSSGGGGGGAGAAGGAGGAGTYHCNLQAMSLYAAGERGGHLQGAPGGAGGSAVDDPLPDYSLPPVTSSSSSSLSHGGGGGGGGGGQEAGHHPAAHQGRLTSWYLNQAGGDLGHLASAAAAAAAAGYPGQQQNFHSVREMFESQRIGLNNSPVNGNSSCQMAFPSSQSLYRTSGAFVYDCSKF [FOXC1] | 0.0673 | -0.0439
3 | MQIIRHSEQTLKTALISKNPVLVSQYEKLNAGEQRLMNEAFQPASDLFGPITLHSPSDWITSHPEAPQDFEQFFSDPYRKTPSPNKRSIYIQSIGSLGNTRIISEEYIKWLTGYCKAYFYGLRVKLLEPVPVSVTRCSFRVNENTHNLQIHAGDILKFLKKKKPEDAFCVVGITMIDLYPRDSWNFVFGQASLTDGVGIFSFARYGSDFYSMHYKGKVKKLKKTSSSDYSIFDNYYIPEITSVLLLRSCKTLTHEIGHIFGLRHCQWLACLMQGSNHLEEADRRPLNLCPICLHKLQCAVGFSIVERYKALVRWIDDESSDTPGATPEHSHEDNGNLPKPVEAFKEWKEWIIKCLAVLQK [AMZ2] | 0.00677 | -0.0784
4 | MQVSSLNEVKIYSLSCGKSLPEWLSDRKKRALQKKDVDVRRRIELIQDFEMPTVCTTIKVSKDGQYILATGTYKPRVRCYDTYQLSLKFERCLDSEVVTFEILSDDYSKIVFLHNDRYIEFHSQSGFYYKTRIPKFGRDFSYHYPSCDLYFVGASSEVYRLNLEQGRYLNPLQTDAAENNVCDINSVHGLFATGTIEGRVECWDPRTRNRVGLLDCALNSVTADSEINSLPTISALKFNGALTMAVGTTTGQVLLYDLRSDKPLLVKDHQYGLPIKSVHFQDSLDLILSADSRIVKMWNKNSGKIFTSLEPEHDLNDVCLYPNSGMLLTANETPKMGIYYIPVLGPAPRWCSFLDNLTEELEENPESTVYDDYKFVTKKDLENLGLTHLIGSPFLRAYMHGFFMDIRLYHKVKLMVNPFAYEEYRKDKIRQKIEETRAQRVQLKKLPKVNKELALKLIEEEEEKQKSTWKKKVKSLPNILTDDRFKVMFENPDFQVDEESEEFRLLNPLVSKISEKRKKKLRLLEQQELREKEEEEEPEGKPSDAESSESSDDEKAWVEEVRKQRRLLQQEEKVKRQERLKEDQQTVLKPQFYEIKAGEEFRSFKDSATKQKLMNKTLEDRLKIEAKNGTLSVSDTTVGSKQLTFTLKRSEQQKKQQEAEKLHRQERKRLRRSAGHLKSRHKRGRSFH [NOL10] | -1.88 | 0.53
5 | MRFMTLLFLTALAGALVCAYDPEAASAPGSGNPCHEASAAQKENAGEDPGLARQAPKPRKQRSSLLEKGLDGAKKAVGGLGKLGKDAVEDLESVGKGAVHDVKDVLDSVL [DCD] | -1.49 | 1.24
6 | MRLFLWNAVLTLFVTSLIGALIPEPEVKIEVLQKPFICHRKTKGGDLMLVHYEGYLEKDGSLFHSTHKHNNGQPIWFTLGILEALKGWDQGLKGMCVGEKRKLIIPPALGYGKEGKGKIPPESTLIFNIDLLEIRNGPRSHESFQEMDLNDDWKLSKDEVKAYLKKEFEKHGAVVNESHHDALVEDIFDKEDEDKDGFISAREFTYKHDEL [FKBP14] | 0.295 | -0.053
7 | MRLTPRALCSAAQAAWRENFPLCGRDVARWFPGHMAKGLKKMQSSLKLVDCIIEVHDARIPLSGRNPLFQETLGLKPHLLVLNKMDLADLTEQQKIMQHLEGEGLKNVIFTNCVKDENVKQIIPMVTELIGRSHRYHRKENLEYCIMVIGVPNVGKSSLINSLRRQHLRKGKATRVGGEPGITRAVMSKIQVSERPLMFLLDTPGVLAPRIESVETGLKLALCGTVLDHLVGEETMADYLLYTLNKHQRFGYVQHYGLGSACDNVERVLKSVAVKLGKTQKVKVLTGTGNVNIIQPNYPAAARDFLQTFRRGLLGSVMLDLDVLRGHPPAETLP [MTG1] | 0.123 | -0.0796
8 | MRSRSNSGVRLDGYARLVQQTILCHQNPVTGLLPASYDQKDAWVRDNVYSILAVWGLGLAYRKNADRDEDKAKAYELEQSVVKLMRGLLHCMIRQVDKVESFKYSQSTKDSLHAKYNTKTCATVVGDDQWGHLQLDATSVYLLFLAQMTASGLHIIHSLDEVNFIQNLVFYIEAAYKTADFGIWERGDKTNQGISELNASSVGMAKAALEALDELDLFGVKGGPQSVIHVLADEVQHCQSILNSLLPRASTSKEVDASLLSVVSFPAFAVEDSQLVELTKQEIITKLQGRYGCCRFLRDGYKTPKEDPNRLYYEPAELKLFENIECEWPLFWTYFILDGVFSGNAEQVQEYKEALEAVLIKGKNGVPLLPELYSVPPDRVDEEYQNPHTVDRVPMGKLPHMWGQSLYILGSLMAEGFLAPGEIDPLNRRFSTVPKPDVVVQVSILAETEEIKTILKDKGIYVETIAEVYPIRVQPARILSHIYSSLGCNNRMKLSGRPYRHMGVLGTSKLYDIRKTIFTFTPQFIDQQQFYLALDNKMIVEMLRTDLSYLCSRWRMTGQPTITFPISHSMLDEDGTSLNSSILAALRKMQDGYFGGARVQTGKLSEFLTTSCCTHLSFMDPGPEGKLYSEDYDDNYDYLESGNWMNDYDSTSHARCGDEVARYLDHLLAHTAPHPKLAPTSQKGGLDRFQAAVQTTCDLMSLVTKAKELHVQNVHMYLPTKLFQASRPSFNLLDSPHPRQENQVPSVRVEIHLPRDQSGEVDFKALVLQLKETSSLQEQADILYMLYTMKGPDWNTELYNERSATVRELLTELYGKVGEIRHWGLIRYISGILRKKVEALDEACTDLLSHQKHLTVGLPPEPREKTISAPLPYEALTQLIDEASEGDMSISILTQEIMVYLAMYMRTQPGLFAEMFRLRIGLIIQVMATELAHSLRCSAEEATEGLMNLSPSAMKNLLHHILSGKEFGVERSVRPTDSNVSPAISIHEIGAVGATKTERTGIMQLKSEIKQVEFRRLSISAESQSPGTSMTPSSGSFPSAYDQQSSKDSRQGQWQRRRRLDGALNRVPVGFYQKVWKVLQKCHGLSVEGFVLPSSTTREMTPGEIKFSVHVESVLNRVPQPEYRQLLVEAILVLTMLADIEIHSIGSIIAVEKIVHIANDLFLQEQKTLGADDTMLAKDPASGICTLLYDSAPSGRFGTMTYLSKAAATYVQEFLPHSICAMQ [PHKA1] | 0.037 | -0.332
9 | MRTEAEAAGPPLEPGDFVQLPVPVIQQLYHWDCGLACSRMVLRYLGQLDDSEFERALQKLQLTRSIWTIDLAYLMHHFGVRHRFCTQTLGVDKGYKNQSFYRKHFDTEETRVNQLFAQAKACKVLVEKCTVSVKDIQAHLAQGHVAIVLVNSGVLHCDLCSSPVKYCCFTPSGHHCFCRTPDYQGHFIVLRGYNRATGCIFYNNPAYADPGMCSTSISNFEEARTSYGTDEDILFVYLDS [GUCD1] | -0.455 | -0.00182
10 | MSCTIEKALADAKALVERLRDHDDAAESLIEQTTALNKRVEAMKQYQEEIQELNEVARHRPRSTLVMGIQQENRQIRELQQENKELRTSLEEHQSALELIMSKYREQMFRLLMASKKDDPGIIMKLKEQHSKIDMVHRNKSEGFFLDASRHILEAPQHGLERRHLEANQNELQAHVDQITEMAAVMRKAIEIDEQQGCKEQERIFQLEQENKGLREILQITRESFLNLRKDDASESTSLSALVTNSDLSLRKS [FGFR1OP2] | 0.209 | 0.0581
11 | MSDRKAVIKNADMSEDMQQDAVDCATQAMEKYNIEKDIAAYIKKEFDKKYNPTWHCIVGRNFGSYVTHETKHFIYFYLGQVAILLFKSG [DYNLL2] | -0.415 | 0.249
12 | MSEARGEPGSGPEAGARFFCTAGRGLEPFVMREVRARLAATQVEYISGKVFFTTCSDLNMLKKLKSAERLFLLIKKQFPLIISSVSKGKIFNEMQRLINEDPGSWLNAISIWKNLLELDAKKEKLSQRDDNQLKRKVGENEIIAKKLKIEQMQKIEENRDCQLEKQIKEETLEQRDFTTKSEKFQEEEFQNDIEKAIDTHNQNDLTFRVSCRCSGTIGKAFTAQEVGKVIGIAIMKHFGWKADLRNPQLEIFIHLNDIYSVVGIPVFRVSLASRAYIKTAGLRSTIAWAMASLADIKAGAFVLDPMCGLGTILLEAAKEWPDVYYVGADVSDSQLLGTWDNLKAAGLEDKIELLKISVIELPLPSESVDIIISDIPFGKKFKLGKDIKSILQEMERVLHVGGTIVLLLSEDHHRRLTDCKESNIPFNSKDSHTDEPGIKKCLNPEEKTGAFKTASTSFEASNHKFLDRMSPFGSLVPVECYKVSLGKTDAFICKYKKSHSSGL [THUMPD2] | 0.0337 | -0.134
13 | MSFLFSSRSSKTFKPKKNIPEGSHQYELLKHAEATLGSGNLRQAVMLPEGEDLNEWIAVNTVDFFNQINMLYGTITEFCTEASCPVMSAGPRYEYHWADGTNIKKPIKCSAPKYIDYLMTWVQDQLDDETLFPSKIGVPFPKNFMSVAKTILKRLFRVYAHIYHQHFDSVMQLQEEAHLNTSFKHFIFFVQEFNLIDRRELAPLQELIEKLGSKDR [MOB1A] | 0.448 | -0.11
14 | MSGGGTETPVGCEAAPGGGSKKRDSLGTAGSAHLIIKDLGEIHSRLLDHRPVIQGETRYFVKEFEEKRGLREMRVLENLKNMIHETNEHTLPKCRDTMRDSLSQVLQRLQAANDSVCRLQQREQERKKIHSDHLVASEKQHMLQWDNFMKEQPNKRAEVDEEHRKAMERLKEQYAEMEKDLAKFSTF [BLOC1S5] | 0.438 | -0.0624
15 | MSGRSVRAETRSRAKDDIKKVMAAIEKVRKWEKKWVTVGDTSLRIFKWVPVTDSKEKEKSKSNSSAAREPNGFPSDASANSSLLLEFQDENSNQSSVSDVYQLKVDSSTNSSPSPQQSESLSPAHTSDFRTDDSQPPTLGQEILEEPSLPSSEVADEPPTLTKEEPVPLETQVVEEEEDSGAPPLKRFCVDQPTVPQTASES [BCL7B] | 0.295 | 0.0126
